Test results: patent US10246503B2, “Method of improving the pharmacokinetic profile of a therapeutic polypeptide and the use thereof” (BEIJING ANXINHUAIDE BIOTECH. CO., LTD, priority 2012, dated 2019)

Legend:
SD rats = test: Intraperitoneal glucose tolerance test (IPGTT) in SD rats; type: in vivo, SD (Sprague-Dawley) rats
Experimental: In this figure, GLP1(A8G/G22E/R36G)-Fn8-p246-COL18NC1 is labeled as p246. In FIG. 9a, the rats were injected with saline, GLP1(A8G/G22E/R36G)-Fn8-p246-COL18NC1 at the dose of 10_nmol/kg and 20_nmol/kg, respectively. 8 hours after the administrations of the fusion protein (and control), the IPGTT experiments were conducted. The three curves indicated the glucose levels in the IPGTT for rats that received negative control (saline), GLP1(A8G/G22E/R36G)-Fn8-p246-COL18NC1 at the doses of 10_nmol/kg and 20_nmol/kg, respectively. In FIG. 9b, the rats were injected with saline, GLP1(A8G/G22E/R36G)-Fn8-p246-COL18NC1 at the dose of 20 nmol/kg. 32 hours and 102 hours after the administrations of the fusion protein (and the control), the IPGTT experiments were conducted. The three curves indicated the glucose levels in the IPGTT for rats that 32 hours and 102 hours after administration of negative control (saline), GLP1(A8G/G22E/R36G)-Fn8-p246-COL18NC1 respectively.
To evaluate the efficacy of GLP1(A8G/G22E/R36G)-Fn8-p246-COL18NC1 to reduce the glucose level in animal models, we performed the Intraperitoneal glucose tolerance test (IPGTT) in SD rats. The fusion protein GLP1(A8G/G22E/R36G)-Fn8-p246-COL18NC1 was administered on SD (Sprague-Dawley) rats by intraperitoneal injections at the dose of 10 nmol/kg and 20 nmol/kg for animals, respectively. Glucose was injected into the animals with the dose of 2 g/kg at 8 hours, 32 hours and 100 hours after the injection of the fusion protein GLP1(A8G/G22E/R36G)-Fn8-p246-COL18NC1. Blood samples were taken at various time points after injections such as 0-min, 10-min, 20-min, 30-min, 60-min and 120-min. The glucose levels within the blood samples were measured using a Accu-Chek Performa blood glucose meter (Roche) immediately. In FIG. 9a, the rats were injected with GLP1(A8G/G22E/R36G)-Fn8-p246-COL18NC1 at the dose of 10 nmol/kg and 20 nmol/kg about 8 hours before the IPGTT experiments were conducted. […] In FIG. 9b, about 32 hours and 100 hours after the rats were injected with GLP1(A8G/G22E/R36G)-Fn8-p246-COL18NC1 at the dose of 20 nmol/kg, the IPGTT experiments were conducted.

[1] = pharmacokinetics in SD rats, sandwich ELISA (Example 15); type: in vivo, SD (Sprague-Dawley) rats; conditions: intraperitoneal, 5 nmol/kg
Experimental: To evaluate the pharmacokinetics profiles for the GLP-1 containing fusion proteins generated using the method of the invention, we purified the recombinant fusion proteins of GLP-1-Fn8-COL18NC1, GLP1(A8G/G22E/R36G)-Fn8-p246-COL18NC1 and GLP1(A8G/G22E/R36G)-Fn8-p285-COL18NC1 in PBS buffer, pH 7.2. These fusion proteins were administered into SD (Sprague-Dawley) rats by intraperitoneal injections at the dose of 5 nmol/kg for animals, respectively. Blood samples were taken at various time points after injections such as 0-min, 30-min, 1-hour, 2-hour, 4-hour, 6-hour, 8-hour, 24-hour, 48-hour, 3-day, 4-day, 5-day, 6-day and 7-day. The serum samples were centrifuged and kept at −80° C. freezer.
The GLP-1 concentrations within the samples were examined by use of the sandwich ELISA method. The rabbit polyclonal antibody against human Fibronectin at the concentration of 3 ug/ml (Ab299, Abcam company) was coated on ELISA plate for 1 hour at room temperature. Then the plate was washed by PBST buffer three times and the wells were blocked by PBS with 10% FBS for 1 hour at room temperature. The plate was washed three times before the serum samples containing GLP-1 fusion proteins were added. The serum samples could be diluted to 20-10000 folds before use. The ELISA plate was incubated with the serum samples at room temperature for 1 hour and then washed by PBST buffer five times. Then mouse monoclonal against human GLP-1 peptide antibody (sc57510, Santa Cruz Biotechnology) at the concentration of 1 ug/ml in PBST buffer was added to the wells. The plate was washed extensively after incubation of 1 hour at room temperature. The secondary antibody, […] HRP conjugated antibody (Beijing ZSGB-Bio company, ZB 5301), was added into the wells and the color was developed using TMB (3,3′,5,5′-tetramethylbenzidine, BD Biosciences, Cat 555214). The plate reader (Bio-Rad microplate reader Model 680) was utilized to obtain the OD450 readings. This method has been calibrated using purified proteins first.
The pharmacokinetics parameters were obtained by using the WinNonlin software (Table 5).

B1: GLP1(A8G/G22E/R36G)-Fn8-p246-COL18NC1: GLP-1 mutant, Fn8, pCloud p246, COL18NC1 fusion; SEQ ID NO: 16 (protein)
chain: HGEGTFTSDVSSYLEEQAAKEFIAWLVKGGGSGGGSGGGSGGGSGGGSGSGGAVPPPTDLRFTNIGPDTMRVTWAPPPSIDLTNFLVRYSPVKNEEDVAELSISPSDNAVVLTNLLPGTEYVVSVSSVYEQHESTPLRGRQKTGGGGSGGGSGSGSESGSGGGSTSSGTGSETESPGSGSESGSGPSSAGSGSGSESGSGSGSSGPGSTGGSGSESGSGPGSSGTGGTATGSGSESGSGPGSSGPGSTGSGSGSESGSGSGSSGTGSTGGSGSESGSGPGSPRPGSTGTGSGSESGSGPGSSERGSAGGSGSESGSGTSESSASGSTGGSGSESGSGSESGSGSGSESGSGPESPGSGGSGSESGSGTSGSTGSGSESGSGGGSGGGSGGGASSGVRLWATRQAMLGQVHEVPEGWLIFVAEQEELYVRVQNGFRKVQLEARTPLPRG
Q: With B1 as the molecule, how does the “glucose level in IPGTT” value (SD rats; 10 nmol/kg intraperitoneal, about 8 hours before IPGTT, glucose 2 g/kg) read?
A: can efficiently reduce the glucose level

Q: And the “glucose level in IPGTT” value (SD rats; 20 nmol/kg intraperitoneal, about 8 hours before IPGTT, glucose 2 g/kg)?
A: can efficiently reduce the glucose level

Q: And the “glucose level in IPGTT” value (SD rats; 20 nmol/kg, 100 hours after the injection)?
A: can still reduce the glucose level significantly

Q: What about the “glucose-reducing activity in IPGTT” value (SD rats; single dose 20 nmol/kg, IPGTT about 32 hours and 100 hours after injection) of the same molecule?
A: can maintain its glucose-reducing activity in vivo for an extended period of time

Q: What about the AUCall ([1]; Rats) of the same molecule?
A: 301.2 µg·h/mL

Q: And the CL/F ([1]; Rats)?
A: 2.03 mL/h/kg

Q: What about the Cmax ([1]; Rats) of the same molecule?
A: 5730 ng/mL

Q: And the T½ ([1]; Rats)?
A: 30.8 h

Q: And the Vss ([1]; Rats)?
A: 0.09023 L/kg

Q: And the half life ([1]; SD rats)?
A: 30.8 h
